Assay results: paper PMC6941951, “Conditional control of RNA-guided nucleic acid cleavage and gene editing”

Molecular target: T1, dCas13a (LbuCas13a R1079A/K1080A) (Leptotrichia buccalis, UniProt C7NBY4 1-1159, R1079A;K1080A)
T1 sequence: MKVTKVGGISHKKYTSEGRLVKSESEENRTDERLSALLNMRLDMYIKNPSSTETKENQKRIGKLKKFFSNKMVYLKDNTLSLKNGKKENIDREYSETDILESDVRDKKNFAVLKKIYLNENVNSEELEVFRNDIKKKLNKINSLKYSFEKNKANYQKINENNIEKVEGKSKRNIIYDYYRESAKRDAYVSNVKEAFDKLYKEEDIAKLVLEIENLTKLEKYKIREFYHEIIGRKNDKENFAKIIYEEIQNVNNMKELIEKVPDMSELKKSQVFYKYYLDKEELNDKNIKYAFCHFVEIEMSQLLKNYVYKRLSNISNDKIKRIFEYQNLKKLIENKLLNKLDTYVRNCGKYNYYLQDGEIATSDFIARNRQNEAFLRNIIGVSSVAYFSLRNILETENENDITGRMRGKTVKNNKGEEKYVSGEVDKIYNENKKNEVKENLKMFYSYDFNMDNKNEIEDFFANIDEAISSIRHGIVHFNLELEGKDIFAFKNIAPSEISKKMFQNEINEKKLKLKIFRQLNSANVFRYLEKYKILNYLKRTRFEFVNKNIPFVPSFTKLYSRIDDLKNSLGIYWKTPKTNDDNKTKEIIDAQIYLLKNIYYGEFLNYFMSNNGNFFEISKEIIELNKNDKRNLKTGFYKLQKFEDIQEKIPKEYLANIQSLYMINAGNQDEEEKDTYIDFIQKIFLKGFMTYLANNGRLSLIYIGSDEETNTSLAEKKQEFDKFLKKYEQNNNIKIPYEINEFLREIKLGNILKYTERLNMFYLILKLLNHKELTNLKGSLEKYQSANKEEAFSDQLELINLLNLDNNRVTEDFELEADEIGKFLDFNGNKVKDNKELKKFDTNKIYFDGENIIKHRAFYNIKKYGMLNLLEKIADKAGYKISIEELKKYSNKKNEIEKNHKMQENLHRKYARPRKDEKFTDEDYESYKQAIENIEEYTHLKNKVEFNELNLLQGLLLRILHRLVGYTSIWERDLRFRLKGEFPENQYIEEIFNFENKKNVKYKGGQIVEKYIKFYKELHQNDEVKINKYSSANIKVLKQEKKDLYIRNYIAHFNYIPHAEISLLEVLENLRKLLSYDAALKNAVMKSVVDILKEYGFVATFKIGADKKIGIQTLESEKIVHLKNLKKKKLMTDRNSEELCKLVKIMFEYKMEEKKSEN
Assay: EMSA; no target RNA; dCas13a EMSA: 20 mM HEPES pH 6.8 (25 C), 50 mM KCl, 10 ug/mL BSA, 100 ug/mL yeast tRNA, 0.01% Igepal CA-630, 5% glycerol; 10 min at 37 C; 6% native PAGE at 4 C
Conditions: protein: recombinant; tags: His6-MBP removed with TEV protease; label: 5'-Cy3; single strand, repeat hairpin

B1: crRNA13a-Cy3 (unmasked) (structured_RNA)
RNA: GAUUUAGACUACCCCAAAAACGAAGGGGACUAAAACUAGAUUGCUGUUCUACCAAGUAAUCCAU
B1: binds.
